The term IC50 denotes the concentration that gives 50% inhibition.

The assay addresses estrogen receptor α (as used in the TR-FRET assay) (UniProt P03372). Nature of the assay: FRET or BRET. Background: Bioluminescence resonance energy transfer reports proximity on the nanometre scale.

Sequence of estrogen receptor α (as used in the TR-FRET assay) (P03372 311-547): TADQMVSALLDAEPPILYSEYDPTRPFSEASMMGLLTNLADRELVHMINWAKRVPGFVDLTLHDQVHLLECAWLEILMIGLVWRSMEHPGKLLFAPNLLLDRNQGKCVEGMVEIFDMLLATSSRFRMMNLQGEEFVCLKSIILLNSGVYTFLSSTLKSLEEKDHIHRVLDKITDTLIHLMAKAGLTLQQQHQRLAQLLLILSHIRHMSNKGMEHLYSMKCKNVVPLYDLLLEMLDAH

With SRC2-WT (peptide), the IC50 was determined as 1100 nM.
